± gives the standard deviation of the averaged measurements.
Assay: total protein half-life in vivo (active degradation + dilution); higher = more stable protein
[1] = E. coli NCM3722 delta-clpP delta-lon delta-hslV, growth: N-lim chemostat, doubling time 6 h
[2] = E. coli NCM3722 delta-clpP, growth: N-lim chemostat, doubling time 6 h
[3] = E. coli NCM3722 delta-hslV, growth: N-lim chemostat, doubling time 6 h
[4] = E. coli NCM3722 delta-lon, growth: N-lim chemostat, doubling time 6 h
[5] = E. coli NCM3722 delta-smpB, growth: N-lim chemostat, doubling time 6 h
[6] = wild type E. coli NCM3722, growth: C-lim chemostat, doubling time 6 h
[7] = wild type E. coli NCM3722, growth: N-lim chemostat, doubling time 6 h
[8] = wild type E. coli NCM3722, growth: N-lim chemostat, doubling time 12 h
[9] = wild type E. coli NCM3722, growth: P-lim chemostat, doubling time 6 h
[10] = wild type E. coli NCM3722, growth: P-lim chemostat, doubling time 12 h
[11] = wild type E. coli NCM3722, growth: C-lim chemostat, doubling time 3 h
[12] = wild type E. coli NCM3722, growth: C-lim chemostat, doubling time 12 h

Sequence	total protein half-life in vivo [1]	total protein half-life in vivo [2]	total protein half-life in vivo [3]	total protein half-life in vivo [4]	total protein half-life in vivo [5]	total protein half-life in vivo [6]	total protein half-life in vivo [7]	total protein half-life in vivo [8]	total protein half-life in vivo [9]	total protein half-life in vivo [10]	total protein half-life in vivo [11]	total protein half-life in vivo [12]
MTDNPNKKTFWDKVHLDPTMLLILLALLVYSALVIWSASGQDIGMMERKIGQIAMGLVIMVVMAQIPPRVYEGWAPYLYIICIILLVAVDAFGAISKGAQRWLDLGIVRFQPSEIAKIAVPLMVARFINRDVCPPSLKNTGIALVLIFMPTLLVAAQPDLGTSILVALSGLFVLFLSGLSWRLIGVAVVLVAAFIPILWFFLMHDYQRQRVMMLLDPESDPLGAGYHIIQSKIAIGSGGLRGKGWLHGTQSQLEFLPERHTDFIFAVLAEELGLVGILILLALYILLIMRGLWIAARAQTTFGRVMAGGLMLILFVYVFVNIGMVSGILPVVGVPLPLVSYGGSALIVLMAGFGIVMSIHTHRKMLSKSV [P0ABG7]	6.32 ± 0.84 h	6.24 ± 0.34 h	5.73 ± 0.093 h	5.59 ± 0.48 h	5.99 ± 0.59 h	5.94 ± 0.34 h	6.47 ± 0.14 h	11.5 ± 1.2 h	5.99 ± 0.21 h	11.9 ± 0.4 h	–	–
MSTIEERVKKIIGEQLGVKQEEVTNNASFVEDLGADSLDTVELVMALEEEFDTEIPDEEAEKITTVQAAIDYINGHQA [P0A6A8]	7.12 ± 0.32 h	5.957 ± 0.032 h	5.79 ± 0.28 h	7.19 ± 0.17 h	4.78 ± 1.6 h	4.95 ± 1.3 h	4 ± 0.13 h	–	5 ± 1.2 h	10.8 ± 0.47 h	3.14 ± 0.069 h	8.88 ± 0.96 h
MTMYATLEEAIDAAREEFLADNPGIDAEDANVQQFNAQKYVLQDGDIMWQVEFFADEGEEGECLPMLSGEAAQSVFDGDYDEIEIRQEWQEENTLHEWDEGEFQLEPPLDTEEGRAAADEWDER	–	6.11 h	3.33 h	3.3 ± 0.71 h	3.22 ± 0.1 h	3.94 ± 0.066 h	3.33 ± 0.17 h	4.03 h	3.9 ± 0.2 h	7.26 h	2.35 ± 0.29 h	6.75 ± 1.1 h
MSLINTKIKPFKNQAFKNGEFIEITEKDTEGRWSVFFFYPADFTFVCPTELGDVADHYEELQKLGVDVYAVSTDTHFTHKAWHSSSETIAKIKYAMIGDPTGALTRNFDNMREDEGLADRATFVVDPQGIIQAIEVTAEGIGRDASDLLRKIKAAQYVASHPGEVCPAKWKEGEATLAPSLDLVGKI [P0AE08]	2.82 ± 0.23 h	2.22 ± 0.28 h	1.91 ± 0.12 h	2.26 ± 0.079 h	2.119 ± 0.01 h	5.05 ± 0.11 h	2.03 ± 0.16 h	2.6085 ± 0.0015 h	5.49 ± 0.38 h	9.52 ± 0.29 h	2.89 ± 0.21 h	7.67 ± 0.6 h
MATRIEFHKHGGPEVLQAVEFTPADPAENEIQVENKAIGINFIDTYIRSGLYPPPSLPSGLGTEAAGIVSKVGSGVKHIKAGDRVVYAQSALGAYSSVHNIIADKAAILPAAISFEQAAASFLKGLTVYYLLRKTYEIKPDEQFLFHAAAGGVGLIACQWAKALGAKLIGTVGTAQKAQSALKAGAWQVINYREEDLVERLKEITGGKKVRVVYDSVGRDTWERSLDCLQRRGLMVSFGNSSGAVTGVNLGILNQKGSLYVTRPSLQGYITTREELTEASNELFSLIASGVIKVDVAEQQKYPLKDAQRAHEILESRATQGSSLLIP	6.37 ± 0.98 h	5.12 ± 0.23 h	5.73 ± 0.15 h	5.78 ± 0.78 h	5.28 ± 0.14 h	5.98 ± 0.24 h	5.5 ± 0.41 h	10.2 ± 0.47 h	5.84 ± 0.14 h	12.63 ± 0.043 h	3.13 ± 0.2 h	9.65 ± 0.38 h
MTKQPPIAKADLQKTQGNRAPAAVKNSDVISFINQPSMKEQLAAALPRHMTAERMIRIATTEIRKVPALGNCDTMSFVSAIVQCSQLGLEPGSALGHAYLLPFGNKNEKSGKKNVQLIIGYRGMIDLARRSGQIASLSARVVREGDEFSFEFGLDEKLIHRPGENEDAPVTHVYAVARLKDGGTQFEVMTRKQIELVRSLSKAGNNGPWVTHWEEMAKKTAIRRLFKYLPVSIEIQRAVSMDEKEPLTIDPADSSVLTGEYSVIDNSEE	5.151 ± 0.025 h	–	1.34 h	–	–	3.79 ± 0.043 h	1.57 h	3.39 h	–	4.09 ± 0.29 h	2.62 ± 0.65 h	7.28 ± 0.72 h
MTKPYVRLDKNDAAVLLVDHQAGLLSLVRDIEPDKFKNNVLALGDLAKYFNLPTILTTSFETGPNGPLVPELKAQFPDTPYIARPGNINAWDNEDFVKAVKATGKKQLIIAGVVTEVCVAFPALSAIEEGFDVFVVTDASGTFNEITRHSAWDRLSQAGAQLMTWFGVACELHRDWRNDIEGLATLFSNHIPDYRNLMTSYDTLTKQK	6.75 ± 1.6 h	5.73 ± 0.18 h	5.4 ± 0.7 h	5.666 ± 0.053 h	4.69 ± 0.19 h	–	5.17 ± 0.61 h	9.22 ± 0.33 h	5.84 ± 0.94 h	12.9 ± 1.1 h	3.0124 ± 0.0024 h	10.3 ± 1.9 h
MSHQLTFADSEFSSKRRQTRKEIFLSRMEQILPWQNMVEVIEPFYPKAGNGRRPYPLETMLRIHCMQHWYNLSDGAMEDALYEIASMRLFARLSLDSALPDRTTIMNFRHLLEQHQLARQLFKTINRWLAEAGVMMTQGTLVDATIIEAPSSTKNKEQQRDPEMHQTKKGNQWHFGMKAHIGVDAKSGLTHSLVTTAANEHDLNQLGNLLHGEEQFVSADAGYQGAPQREELAEVDVDWLIAERPGKVRTLKQHPRKNKTAINIEYMKASIRARVEHPFRIIKRQFGFVKARYKGLLKNDNQLAMLFTLANLFRADQMIRQWERSH [P0CE51]	3.8 ± 0.34 h	–	–	–	0.495 h	0.676 h	0.532 h	–	0.426 h	0.648 h	> 4 h	3.18 h

From the supplement of paper PMC11246515
